The values below come from patent US20240207313A1.

In assay [1] the target is T-cell receptor with TCR Vbeta 7.1 chain (H. sapiens rearranged TCR Vbeta 7.1) (H. sapiens). Nature of the assay: cell-based or functional assay.
Assay [2] deals with T-cell surface glycoprotein CD4 [Homo sapiens] (Homo sapiens) (UniProt P01730). Nature of the assay: cell-based or functional assay.

T-cell receptor with TCR Vbeta 7.1 chain (H. sapiens rearranged TCR Vbeta 7.1) (H. sapiens), sequence (A0A577 whole entry, form in doubt): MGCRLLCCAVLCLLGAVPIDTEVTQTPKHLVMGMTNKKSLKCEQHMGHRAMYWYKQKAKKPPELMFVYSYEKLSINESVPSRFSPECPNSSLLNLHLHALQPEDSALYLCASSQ

The substance “CART20 anti-CD20 chimeric antigen receptor (scFv of monoclonal antibody Leu16 in the third-generation CAR backbone), expressed on transduced human T cells” showed a TCR Vβ7.1-positive cells remaining five days after CAR transduction (flow cytometry) in assay [1] of 1.2%. The substance further had a CD4-positive cells remaining in the culture after CAR transduction (flow cytometry) in assay [2] of 45%.
